From US20180292409A1 (REGENTS OF THE UNIVERSITY OF MINNESOTA, published 2018)

Target: T1, progesterone receptor (PR) (human, UniProt P06401 1-933, limits assumed)
T1 construct: also called total PR; PR-A
T1 sequence (looked up): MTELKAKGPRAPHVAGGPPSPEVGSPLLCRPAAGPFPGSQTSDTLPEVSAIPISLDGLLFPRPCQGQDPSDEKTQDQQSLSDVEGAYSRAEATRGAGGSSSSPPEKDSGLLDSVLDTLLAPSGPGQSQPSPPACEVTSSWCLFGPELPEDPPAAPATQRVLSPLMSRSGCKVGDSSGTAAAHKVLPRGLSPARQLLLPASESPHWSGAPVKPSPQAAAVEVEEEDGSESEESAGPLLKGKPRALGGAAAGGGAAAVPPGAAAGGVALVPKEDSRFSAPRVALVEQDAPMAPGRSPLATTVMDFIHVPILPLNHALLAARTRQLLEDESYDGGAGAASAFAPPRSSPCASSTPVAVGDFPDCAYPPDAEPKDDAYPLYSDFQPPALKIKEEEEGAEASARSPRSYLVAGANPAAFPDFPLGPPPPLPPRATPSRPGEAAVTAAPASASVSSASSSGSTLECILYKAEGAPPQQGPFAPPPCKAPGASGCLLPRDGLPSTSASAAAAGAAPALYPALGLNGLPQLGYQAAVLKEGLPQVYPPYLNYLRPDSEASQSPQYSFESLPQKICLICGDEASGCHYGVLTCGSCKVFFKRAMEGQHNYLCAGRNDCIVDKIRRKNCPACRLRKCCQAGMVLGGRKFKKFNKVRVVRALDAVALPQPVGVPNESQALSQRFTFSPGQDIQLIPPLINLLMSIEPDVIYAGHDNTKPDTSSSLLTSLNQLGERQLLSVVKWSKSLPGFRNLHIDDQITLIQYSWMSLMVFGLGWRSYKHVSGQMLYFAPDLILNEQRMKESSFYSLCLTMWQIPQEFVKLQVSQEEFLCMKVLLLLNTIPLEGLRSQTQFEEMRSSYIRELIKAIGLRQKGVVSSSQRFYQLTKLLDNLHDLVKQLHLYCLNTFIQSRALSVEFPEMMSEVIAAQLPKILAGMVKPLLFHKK
Experiment: co-immunoprecipitation from breast cancer cell whole cell lysates

B1: RUNX2 (other, UniProt Q13950 1-521, looked up)
chain: MASNSLFSTVTPCQQNFFWDPSTSRRFSPPSSSLQPGKMSDVSPVVAAQQQQQQQQQQQQQQQQQQQQQQQEAAAAAAAAAAAAAAAAAVPRLRPPHDNRTMVEIIADHPAELVRTDSPNFLCSVLPSHWRCNKTLPVAFKVVALGEVPDGTVVTVMAGNDENYSAELRNASAVMKNQVARFNDLRFVGRSGRGKSFTLTITVFTNPPQVATYHRAIKVTVDGPREPRRHRQKLDDSKPSLFSDRLSDLGRIPHPSMRVGVPPQNPRPSLNSAPSPFNPQGQSQITDPRQAQSSPPWSYDQSYPSYLSQMTSPSIHSTTPLSSTRGTGLPAITDVPRRISDDDTATSDFCLWPSTLSKKSQAGASELGPFSDPRQFPSISSLTESRFSNPRMHYPATFTYTPPVTSGMSLGMSATTHYHTYLPPPYPGSSQSQSGPFQTSSTPYLYYGTSSGSYQFPMVPGGDRSPSRMLPPCTTTSNGSTLLNPNLPNQNDGVDADGSHSSSPTVLNSSGRMDESVWRPY
notes: also called runt-related transcription factor 2
binding result: no binding
